From PMC5036196 come the findings set out here.

Where a chain is given by its changes, count along the chain named.

First the molecules themselves.
B1: ARB2-M1 (residues Gln463, His467 and Asp471 mutated to Ala) (domain or fragment)
chain: LQKAIRAQQQAYLSAEFNFVTLPLVSMDLPDNTVLCTPNISESNTIIIVVHDTSDIWAKRNVISGTIDLSSSVIIDNSLDFIKWGLDRKYGIIDVNIPLTLFEPDNYSGMITSQEVLIYLWDNYIKYFPSVAKIAFIGIGDSYSGIVHLLGHRDTRAVTKTVINFLGDKQLKPLVPLVDETLSEWYFKNSLIFSNNSHQCWKENESRKPRKKFGRVLRCDTDGLNNIIEERFEEATDFILDS
B2: ARB2-M2 (residues Tyr468 and Glu472 mutated to Ala) (domain or fragment)
chain: B1 chain with A7Q, A11H, Y12A, A15D, E16A
B3: ARB2-M4 (residues His604, His608 and Arg609 mutated to Ala) (domain or fragment)
chain: B1 chain with A7Q, A11H, A15D, H148A, H152A, R153A
B4: ARB2-M3 (residues Val481, Ser482, Met483 and Asp484 mutated to Ala) (domain or fragment)
chain: B1 chain with A7Q, A11H, A15D, V25A, S26A, M27A, D28A
B5: ARB2 domain of Hda1 (Hda1^457–698) (domain or fragment)
chain: B1 chain with A7Q, A11H, A15D

In the assay the target is yeast histone H2A-H2B dimer (Saccharomyces cerevisiae) (UniProt P04911). Briefly: ITC; ITC200 at 20 °C; 0.5 mM ARB2 or mutant in the injector, 0.2 mM H2A/B or 0.25 mM H3/4 in the sample cell; 25 mM Tris-HCl pH 7.5, 200 mM NaCl; single-site fitting model. In general terms: In ITC the heat of successive injections is recorded.
For the molecule B1, the Kd (as a rule, the equilibrium constant for the complex coming apart) is 20.4 µM; the dH was -6.86 kcal/mol; the stoichiometry N (commonly a count of units in the complex or per binding partner) was 0.77.
Taken in the same sequence, the figures for B2 were 16.9 µM, -8.9 kcal/mol and 0.64.
Taken in the same sequence, the figures for B3 were 17.4 µM, -11.5 kcal/mol and 0.8.
For B4, in that order: 27.7 µM, -11.6 kcal/mol and 0.74.
B5 gave a Kd of 5.46 µM, a dH of -12.9 kcal/mol and a stoichiometry N of 0.78.
